Measurements: the supplement of paper PMC10065799, “High-throughput profiling of sequence recognition by tyrosine kinases and SH2 domains using bacterial peptide display” (eLife, 2023)

Biological target: FGFR3 (UniProt P22607)
Test: phosphorylation enrichment, bacterial display (enrichment ratio); higher = better substrate or ligand; peptides without Tyr show the background
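Note: 11-residue human phosphosite peptides and single-mutation variants displayed on the E. coli surface, counted by deep sequencing, each peptide's frequency after selection divided by its frequency in the unselected input library; frequency after pTyr selection over input frequency; kinase dosed for 20-30% of maximal phosphorylation in three min.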

Chain of FGFR3 (P22607 whole entry, looked up): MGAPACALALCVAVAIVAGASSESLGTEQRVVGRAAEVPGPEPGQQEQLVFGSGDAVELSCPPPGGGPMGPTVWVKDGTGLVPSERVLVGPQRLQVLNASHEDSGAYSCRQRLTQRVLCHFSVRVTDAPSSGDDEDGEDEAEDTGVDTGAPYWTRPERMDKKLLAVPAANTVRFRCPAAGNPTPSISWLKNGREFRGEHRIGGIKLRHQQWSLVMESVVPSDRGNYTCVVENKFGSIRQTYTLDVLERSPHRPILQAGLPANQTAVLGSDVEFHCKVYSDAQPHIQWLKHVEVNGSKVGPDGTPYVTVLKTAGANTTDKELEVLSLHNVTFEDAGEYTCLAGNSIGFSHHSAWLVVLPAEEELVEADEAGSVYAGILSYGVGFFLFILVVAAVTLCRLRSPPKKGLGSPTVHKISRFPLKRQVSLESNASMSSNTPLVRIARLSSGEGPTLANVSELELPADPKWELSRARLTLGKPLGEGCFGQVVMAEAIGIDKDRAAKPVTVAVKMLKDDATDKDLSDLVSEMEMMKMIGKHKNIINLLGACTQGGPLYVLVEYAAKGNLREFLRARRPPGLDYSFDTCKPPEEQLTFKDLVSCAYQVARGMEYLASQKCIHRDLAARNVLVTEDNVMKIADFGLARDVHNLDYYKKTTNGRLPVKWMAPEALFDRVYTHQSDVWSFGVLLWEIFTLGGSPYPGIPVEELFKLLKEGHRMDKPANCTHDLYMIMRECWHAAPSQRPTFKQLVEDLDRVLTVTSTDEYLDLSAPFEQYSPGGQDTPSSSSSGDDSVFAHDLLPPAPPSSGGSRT

Row | Sequence | phosphorylation enrichment
1 | DLQDEYDFKCK [STAT1_Y170] | 0.772
2 | RLLVVYRWTQR [HBB_Y36_P37R] | 0.761
3 | LPKEQYLFTKE [AFG3L2_Y614_YF] | 1.51
4 | QISSNYDDAMQ [ZNF281_Y531] | 0.703
5 | CSGNCYLDIRP [FBN1_Y1535_R1530C] | 0.532
6 | GSERDYTYEEL [EIF2S2_Y174] | 0.711
7 | LGRTRYQDVTG [MIPEP_Y510_H512D] | 0.665
8 | LLLLFYVVRFC [MPZ_Y177_YF] | 0.742
9 | VYSIDYYRVGG [NTRK2_Y706_T704I] | 9.09
10 | VQVAYYTMMMN [SPATA17_Y84] | 6.58
11 | CTTIHYNYICN [TP53_Y234_M237I] | 0.654
12 | TFSPPYYHRNC [HGD_Y333_R330S] | 0.654
13 | GPQGFYSNKLV [PTPN14_Y506_V505F] | 0.406
14 | SRPHLYGTPSR [ADGRE2_Y670] | 0.619
15 | GDEVEYMSVSF [GCLC_Y53_L55S] | 1.17
16 | PYGQWYESHYA [RPS8_Y113_R110G] | 2.15
17 | QEIATYRRLPE [KRT16_Y417_L421P] | 0.737
18 | SYSGEYGSGGG [ZG16_Y30_G32S] | 0.512
19 | KAVLHYKHQNQ [MTOR_Y1804_E1799K] | 0.629
20 | QVKEQYQDVPM [PKP2_Y659_K654Q] | 0.914
21 | NTCNRYCCDEI [ITGB3_Y660_R662C] | 0.88
22 | FSQQTYYPVSN [ABCD1_Y180_R182P] | 6.85
23 | HAVYIYDICHV [TWNK_Y508_V507I] | 1.65
24 | SDGGCYEQLFV [MC4R_Y41] | 0.837
25 | DLTQDYEEWKR [ORC6_Y232] | 0.862
26 | TEAEPYYRSLR [NPHS1_Y1138] | 0.609
27 | DNEFAYLKAII [HNF4A_Y288_YF] | 0.648
28 | WYQTKYEELQV [KRT6B_Y360_I365V] | 0.753
29 | AKKKMYSRKTK [AGXT_Y231] | 0.476

Test system: Fer (mouse)
Test: as above

Row | Sequence | phosphorylation enrichment
30 | DLQDEYDFKCK [STAT1_Y170] | 0.555
31 | RLLVVYRWTQR [HBB_Y36_P37R] | 0.711
32 | LPKEQYLFTKE [AFG3L2_Y614_YF] | 0.817
33 | QISSNYDDAMQ [ZNF281_Y531] | 0.533
34 | CSGNCYLDIRP [FBN1_Y1535_R1530C] | 0.404
35 | GSERDYTYEEL [EIF2S2_Y174] | 0.6
36 | LGRTRYQDVTG [MIPEP_Y510_H512D] | 0.563
37 | LLLLFYVVRFC [MPZ_Y177_YF] | 1.14
38 | VYSIDYYRVGG [NTRK2_Y706_T704I] | 3.79
39 | VQVAYYTMMMN [SPATA17_Y84] | 3.67
40 | CTTIHYNYICN [TP53_Y234_M237I] | 0.654
41 | TFSPPYYHRNC [HGD_Y333_R330S] | 0.497
42 | GPQGFYSNKLV [PTPN14_Y506_V505F] | 0.409
43 | SRPHLYGTPSR [ADGRE2_Y670] | 0.402
44 | GDEVEYMSVSF [GCLC_Y53_L55S] | 0.972
45 | PYGQWYESHYA [RPS8_Y113_R110G] | 20.6
46 | QEIATYRRLPE [KRT16_Y417_L421P] | 0.406
47 | SYSGEYGSGGG [ZG16_Y30_G32S] | 0.462
48 | KAVLHYKHQNQ [MTOR_Y1804_E1799K] | 0.469
49 | QVKEQYQDVPM [PKP2_Y659_K654Q] | 0.86
50 | NTCNRYCCDEI [ITGB3_Y660_R662C] | 0.612
51 | FSQQTYYPVSN [ABCD1_Y180_R182P] | 0.983
52 | HAVYIYDICHV [TWNK_Y508_V507I] | 9.37
53 | SDGGCYEQLFV [MC4R_Y41] | 9.7
54 | DLTQDYEEWKR [ORC6_Y232] | 0.715
55 | TEAEPYYRSLR [NPHS1_Y1138] | 0.425
56 | DNEFAYLKAII [HNF4A_Y288_YF] | 0.381
57 | WYQTKYEELQV [KRT6B_Y360_I365V] | 0.568
58 | AKKKMYSRKTK [AGXT_Y231] | 0.443

Biological target: Fes (UniProt P07332)
Sequence (P07332 whole entry, looked up): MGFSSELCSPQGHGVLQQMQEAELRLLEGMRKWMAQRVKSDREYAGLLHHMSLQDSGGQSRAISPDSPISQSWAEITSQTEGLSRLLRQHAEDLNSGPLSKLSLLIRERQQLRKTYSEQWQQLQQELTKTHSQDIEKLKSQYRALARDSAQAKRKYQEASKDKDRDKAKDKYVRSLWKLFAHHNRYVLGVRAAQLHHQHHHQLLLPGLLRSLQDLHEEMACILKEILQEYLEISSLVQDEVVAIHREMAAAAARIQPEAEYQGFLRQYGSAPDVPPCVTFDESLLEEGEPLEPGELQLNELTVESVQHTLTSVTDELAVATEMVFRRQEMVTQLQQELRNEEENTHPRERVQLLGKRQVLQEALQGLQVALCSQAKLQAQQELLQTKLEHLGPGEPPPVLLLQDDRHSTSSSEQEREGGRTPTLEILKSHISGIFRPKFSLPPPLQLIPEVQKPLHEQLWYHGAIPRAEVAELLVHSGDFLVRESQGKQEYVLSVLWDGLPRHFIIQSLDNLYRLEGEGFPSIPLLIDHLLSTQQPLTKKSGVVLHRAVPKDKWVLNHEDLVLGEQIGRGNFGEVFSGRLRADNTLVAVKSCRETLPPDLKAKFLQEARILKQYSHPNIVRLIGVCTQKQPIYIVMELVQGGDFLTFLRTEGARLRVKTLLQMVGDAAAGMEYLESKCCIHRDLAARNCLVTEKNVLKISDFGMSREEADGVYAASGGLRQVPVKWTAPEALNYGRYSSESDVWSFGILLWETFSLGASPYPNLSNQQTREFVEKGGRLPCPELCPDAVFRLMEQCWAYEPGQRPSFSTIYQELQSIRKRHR
Test: as above

Row | Sequence | phosphorylation enrichment
59 | DLQDEYDFKCK [STAT1_Y170] | 1.31
60 | RLLVVYRWTQR [HBB_Y36_P37R] | 1.25
61 | LPKEQYLFTKE [AFG3L2_Y614_YF] | 1.49
62 | QISSNYDDAMQ [ZNF281_Y531] | 0.978
63 | CSGNCYLDIRP [FBN1_Y1535_R1530C] | 0.646
64 | GSERDYTYEEL [EIF2S2_Y174] | 1.13
65 | LGRTRYQDVTG [MIPEP_Y510_H512D] | 0.735
66 | LLLLFYVVRFC [MPZ_Y177_YF] | 1.21
67 | VYSIDYYRVGG [NTRK2_Y706_T704I] | 0.836
68 | VQVAYYTMMMN [SPATA17_Y84] | 1.54
69 | CTTIHYNYICN [TP53_Y234_M237I] | 0.91
70 | TFSPPYYHRNC [HGD_Y333_R330S] | 0.813
71 | GPQGFYSNKLV [PTPN14_Y506_V505F] | 0.441
72 | SRPHLYGTPSR [ADGRE2_Y670] | 0.587
73 | GDEVEYMSVSF [GCLC_Y53_L55S] | 1.16
74 | PYGQWYESHYA [RPS8_Y113_R110G] | 2.16
75 | QEIATYRRLPE [KRT16_Y417_L421P] | 0.757
76 | SYSGEYGSGGG [ZG16_Y30_G32S] | 0.696
77 | KAVLHYKHQNQ [MTOR_Y1804_E1799K] | 0.863
78 | QVKEQYQDVPM [PKP2_Y659_K654Q] | 1.98
79 | NTCNRYCCDEI [ITGB3_Y660_R662C] | 1.49
80 | FSQQTYYPVSN [ABCD1_Y180_R182P] | 0.647
81 | HAVYIYDICHV [TWNK_Y508_V507I] | 1.77
82 | SDGGCYEQLFV [MC4R_Y41] | 1.09
83 | DLTQDYEEWKR [ORC6_Y232] | 1.47
84 | TEAEPYYRSLR [NPHS1_Y1138] | 0.824
85 | DNEFAYLKAII [HNF4A_Y288_YF] | 1.07
86 | WYQTKYEELQV [KRT6B_Y360_I365V] | 1.28
87 | AKKKMYSRKTK [AGXT_Y231] | 0.505

Biological target: Fyn (UniProt P06241)
Sequence (P06241 whole entry, looked up): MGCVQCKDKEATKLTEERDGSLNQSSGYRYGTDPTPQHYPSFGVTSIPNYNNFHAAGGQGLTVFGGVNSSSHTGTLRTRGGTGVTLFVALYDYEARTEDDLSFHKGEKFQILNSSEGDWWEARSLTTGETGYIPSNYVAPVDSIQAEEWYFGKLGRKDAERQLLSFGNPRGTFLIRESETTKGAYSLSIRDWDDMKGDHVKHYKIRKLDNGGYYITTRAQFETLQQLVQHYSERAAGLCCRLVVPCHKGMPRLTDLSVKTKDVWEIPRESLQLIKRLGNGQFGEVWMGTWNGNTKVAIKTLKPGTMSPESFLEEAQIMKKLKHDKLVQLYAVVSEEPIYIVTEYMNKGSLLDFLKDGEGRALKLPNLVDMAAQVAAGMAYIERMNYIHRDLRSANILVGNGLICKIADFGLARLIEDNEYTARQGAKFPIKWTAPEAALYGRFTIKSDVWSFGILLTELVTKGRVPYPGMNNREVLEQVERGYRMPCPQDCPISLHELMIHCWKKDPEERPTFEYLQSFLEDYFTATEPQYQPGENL
Test: as above

Row | Sequence | phosphorylation enrichment
88 | DLQDEYDFKCK [STAT1_Y170] | 0.543
89 | RLLVVYRWTQR [HBB_Y36_P37R] | 0.639
90 | LPKEQYLFTKE [AFG3L2_Y614_YF] | 1.59
91 | QISSNYDDAMQ [ZNF281_Y531] | 0.348
92 | CSGNCYLDIRP [FBN1_Y1535_R1530C] | 0.446
93 | GSERDYTYEEL [EIF2S2_Y174] | 1.09
94 | LGRTRYQDVTG [MIPEP_Y510_H512D] | 0.586
95 | LLLLFYVVRFC [MPZ_Y177_YF] | 0.637
96 | VYSIDYYRVGG [NTRK2_Y706_T704I] | 6.29
97 | VQVAYYTMMMN [SPATA17_Y84] | 1.48
98 | CTTIHYNYICN [TP53_Y234_M237I] | 0.457
99 | TFSPPYYHRNC [HGD_Y333_R330S] | 0.5
100 | GPQGFYSNKLV [PTPN14_Y506_V505F] | 0.348
101 | SRPHLYGTPSR [ADGRE2_Y670] | 0.615
102 | GDEVEYMSVSF [GCLC_Y53_L55S] | 1.41
103 | PYGQWYESHYA [RPS8_Y113_R110G] | 6.11
104 | QEIATYRRLPE [KRT16_Y417_L421P] | 0.525
105 | SYSGEYGSGGG [ZG16_Y30_G32S] | 0.417
106 | KAVLHYKHQNQ [MTOR_Y1804_E1799K] | 0.36
107 | QVKEQYQDVPM [PKP2_Y659_K654Q] | 0.65
108 | NTCNRYCCDEI [ITGB3_Y660_R662C] | 0.577
109 | FSQQTYYPVSN [ABCD1_Y180_R182P] | 2.76
110 | HAVYIYDICHV [TWNK_Y508_V507I] | 7.62
111 | SDGGCYEQLFV [MC4R_Y41] | 1.32
112 | DLTQDYEEWKR [ORC6_Y232] | 0.707
113 | TEAEPYYRSLR [NPHS1_Y1138] | 0.373
114 | DNEFAYLKAII [HNF4A_Y288_YF] | 0.386
115 | WYQTKYEELQV [KRT6B_Y360_I365V] | 0.519
116 | AKKKMYSRKTK [AGXT_Y231] | 0.431
